Assay results as given in patent US12099068B2, “Biomarkers for graft-versus-host disease” (Incyte Corporation, priority 2018, dated 2024).

B1: CLUL1 (protein, UniProt Q15846 21-466, looked up)
Clusterin-like protein 1: APTWKDKTAISENLKSFSEVGEIDADEEVKKALTGIKQMKIMMERKEKEHTNLMSTLKKCREEKQEALKLLNEVQEHLEEEERLCRESLADSWGECRSCLENNCMRIYTTCQPSWSSVKNKIERFFRKIYQFLFPFHEDNEKDLPISEKLIEEDAQLTQMEDVFSQLTVDVNSLFNRSFNVFRQMQQEFDQTFQSHFISDTDLTEPYFFPAFSKEPMTKADLEQCWDIPNFFQLFCNFSVSIYESVSETITKMLKAIEDLPKQDKAPDHGGLISKMLPGQDRGLCGELDQNLSRCFKFHEKCQKCQAHLSEDCPDVPALHTELDEAIRLVNVSNQQYGQILQMTRKHLEDTAYLVEKMRGQFGWVSELANQAPETEIIFNSIQVVPRIHEGNISKQDETMMTDLSILPSSNFTLKIPLEESAESSNFIGYVVAKALQHFKEHFKTW
B2: hK11 (protein, UniProt Q9UBX7 54-282, looked up)
Kallikrein-11: IIKGFECKPHSQPWQAALFEKTRLLCGATLIAPRWLLTAAHCLKPRYIVHLGQHNLQKEEGCEQTRTATESFPHPGFNNSLPNKDHRNDIMLVKMASPVSITWAVRPLTLSSRCVTAGTSCLISGWGSTSSPQLRLPHTLRCANITIIEHQKCENAYPGNITDTMVCASVQEGGKDSCQGDSGGPLVCNQSLQGIISWGQDPCAITRKPGVYTKVCKYVDWIQETMKNN
B3: FOXO1 (protein, UniProt Q12778 1-655, looked up)
Forkhead box protein O1: MAEAPQVVEIDPDFEPLPRPRSCTWPLPRPEFSQSNSATSSPAPSGSAAANPDAAAGLPSASAAAVSADFMSNLSLLEESEDFPQAPGSVAAAVAAAAAAAATGGLCGDFQGPEAGCLHPAPPQPPPPGPLSQHPPVPPAAAGPLAGQPRKSSSSRRNAWGNLSYADLITKAIESSAEKRLTLSQIYEWMVKSVPYFKDKGDSNSSAGWKNSIRHNLSLHSKFIRVQNEGTGKSSWWMLNPEGGKSGKSPRRRAASMDNNSKFAKSRSRAAKKKASLQSGQEGAGDSPGSQFSKWPASPGSHSNDDFDNWSTFRPRTSSNASTISGRLSPIMTEQDDLGEGDVHSMVYPPSAAKMASTLPSLSEISNPENMENLLDNLNLLSSPTSLTVSTQSSPGTMMQQTPCYSFAPPNTSLNSPSPNYQKYTYGQSSMSPLPQMPIQTLQDNKSSYGGMSQYNCAPGLLKELLTSDSPPHNDIMTPVDPGVAQPNSRVLGQNVMMGPNSVMSTYGSQASHNKMMNPSSHTHPGHAQQTSAVNGRPLPHTVSTMPHTSGMNRLTQVKTPVQVPLPHPMQMSALGGYSSVSSCNGYGRMGLLHQEKLPSDLDGMFIERLDCDMESIIRNDLMDGDTLDFNFDNVLPNQSFPHSVKTTTHSWVSG
B4: PRDX5 (protein, UniProt P30044 53-214, looked up)
Peroxiredoxin-5, mitochondrial: MAPIKVGDAIPAVEVFEGEPGNKVNLAELFKGKKGVLFGVPGAFTPGCSKTHLPGFVEQAEALKAKGVQVVACLSVNDAFVTGEWGRAHKAEGKVRLLADPTGAFGKETDLLLDDSLVSIFGNRRLKRFSMVVQDGIVKALNVEPDGTGLTCSLAPNIISQL
B5: TLT-2 (protein, UniProt Q5T2D2 19-321, looked up)
Trem-like transcript 2 protein: GPSADSVYTKVRLLEGETLSVQCSYKGYKNRVEGKVWCKIRKKKCEPGFARVWVKGPRYLLQDDAQAKVVNITMVALKLQDSGRYWCMRNTSGILYPLMGFQLDVSPAPQTERNIPFTHLDNILKSGTVTTGQAPTSGPDAPFTTGVMVFTPGLITLPRLLASTRPASKTGYSFTATSTTSQGPRRTMGSQTVTASPSNARDSSAGPESISTKSGDLSTRSPTTGLCLTSRSLLNRLPSMPSIRHQDVYSTVLGVVLTLLVLMLIMVYGFWKKRHMASYSMCSDPSTRDPPGRPEPYVEVYLI
B6: ST1A1 (protein, UniProt P50225 1-295, looked up)
Sulfotransferase 1A1: MELIQDTSRPPLEYVKGVPLIKYFAEALGPLQSFQARPDDLLISTYPKSGTTWVSQILDMIYQGGDLEKCHRAPIFMRVPFLEFKAPGIPSGMETLKDTPAPRLLKTHLPLALLPQTLLDQKVKVVYVARNAKDVAVSYYHFYHMAKVHPEPGTWDSFLEKFMVGEVSYGSWYQHVQEWWELSRTHPVLYLFYEDMKENPKREIQKILEFVGRSLPEETVDFVVQHTSFKEMKKNPMTNYTTVPQEFMDHSISPFMRKGMAGDWKTTFTVAQNERFDADYAEKMAGCSLSFRSEL
B7: SELP (protein, UniProt P16109 42-830, looked up)
P-selectin: WTYHYSTKAYSWNISRKYCQNRYTDLVAIQNKNEIDYLNKVLPYYSSYYWIGIRKNNKTWTWVGTKKALTNEAENWADNEPNNKRNNEDCVEIYIKSPSAPGKWNDEHCLKKKHALCYTASCQDMSCSKQGECLETIGNYTCSCYPGFYGPECEYVRECGELELPQHVLMNCSHPLGNFSFNSQCSFHCTDGYQVNGPSKLECLASGIWTNKPPQCLAAQCPPLKIPERGNMTCLHSAKAFQHQSSCSFSCEEGFALVGPEVVQCTASGVWTAPAPVCKAVQCQHLEAPSEGTMDCVHPLTAFAYGSSCKFECQPGYRVRGLDMLRCIDSGHWSAPLPTCEAISCEPLESPVHGSMDCSPSLRAFQYDTNCSFRCAEGFMLRGADIVRCDNLGQWTAPAPVCQALQCQDLPVPNEARVNCSHPFGAFRYQSVCSFTCNEGLLLVGASVLQCLATGNWNSVPPECQAIPCTPLLSPQNGTMTCVQPLGSSSYKSTCQFICDEGYSLSGPERLDCTRSGRWTDSPPMCEAIKCPELFAPEQGSLDCSDTRGEFNVGSTCHFSCDNGFKLEGPNNVECTTSGRWSATPPTCKGIASLPTPGVQCPALTTPGQGTMYCRHHPGTFGFNTTCYFGCNAGFTLIGDSTLSCRPSGQWTAVTPACRAVKCSELHVNKPIAMNCSNLWGNFSYGSICSFHCLEGQLLNGSAQTACQENGHWSTTVPTCQAGPLTIQEALTYFGGAVASTIGLIMGGTLLALLRKRFRQKDDGKCPLNPHSHLGTYGVFTNAAFDPSP
B8: SLITRK2 (protein, UniProt Q9H156 22-845, looked up)
SLIT and NTRK-like protein 2: RKTAKDICKIRCLCEEKENVLNINCENKGFTTVSLLQPPQYRIYQLFLNGNLLTRLYPNEFVNYSNAVTLHLGNNGLQEIRTGAFSGLKTLKRLHLNNNKLEILREDTFLGLESLEYLQADYNYISAIEAGAFSKLNKLKVLILNDNLLLSLPSNVFRFVLLTHLDLRGNRLKVMPFAGVLEHIGGIMEIQLEENPWNCTCDLLPLKAWLDTITVFVGEIVCETPFRLHGKDVTQLTRQDLCPRKSASDSSQRGSHADTHVQRLSPTMNPALNPTRAPKASRPPKMRNRPTPRVTVSKDRQSFGPIMVYQTKSPVPLTCPSSCVCTSQSSDNGLNVNCQERKFTNISDLQPKPTSPKKLYLTGNYLQTVYKNDLLEYSSLDLLHLGNNRIAVIQEGAFTNLTSLRRLYLNGNYLEVLYPSMFDGLQSLQYLYLEYNVIKEIKPLTFDALINLQLLFLNNNLLRSLPDNIFGGTALTRLNLRNNHFSHLPVKGVLDQLPAFIQIDLQENPWDCTCDIMGLKDWTEHANSPVIINEVTCESPAKHAGEILKFLGREAICPDSPNLSDGTVLSMNHNTDTPRSLSVSPSSYPELHTEVPLSVLILGLLVVFILSVCFGAGLFVFVLKRRKGVPSVPRNTNNLDVSSFQLQYGSYNTETHDKTDGHVYNYIPPPVGQMCQNPIYMQKEGDPVAYYRNLQEFSYSNLEEKKEEPATPAYTISATELLEKQATPREPELLYQNIAERVKELPSAGLVHYNFCTLPKRQFAPSYESRRQNQDRINKTVLYGTPRKCFVGQSKPNHPLLQAKPQSEPDYLEVLEKQTAISQL
B9: SCGB3A1 (protein, UniProt Q96QR1 21-104, looked up)
Secretoglobin family 3A …: FLVGSAKPVAQPVAALESAAEAGAGTLANPLGTLNPLKLLLSSLGIPVNHLIEGSQKCVAELGPQAVGAVKALKALLGALTVFG
B10: DAPP1 (protein, UniProt Q9UN19 1-280, looked up)
Dual adapter for …: MGRAELLEGKMSTQDPSDLWSRSDGEAELLQDLGWYHGNLTRHAAEALLLSNGCDGSYLLRDSNETTGLYSLSVRAKDSVKHFHVEYTGYSFKFGFNEFSSLKDFVKHFANQPLIGSETGTLMVLKHPYPRKVEEPSIYESVRVHTAMQTGRTEDDLVPTAPSLGTKEGYLTKQGGLVKTWKTRWFTLHRNELKYFKDQMSPEPIRILDLTECSAVQFDYSQERVNCFCLVFPFRTFYLCAKTGVEADEWIKILRWKLSQIRKQLNQGEGTIRSRSFIFK
B11: DKKL1 (protein, UniProt Q9UK85 31-242, looked up)
Dickkopf-like protein 1: APIHDADAQESSLGLTGLQSLLQGFSRLFLKGNLLRGIDSLFSAPMDFRGLPGNYHKEENQEHQLGNNTLSSHLQIDKMTDNKTGEVLISENVVASIQPAEGSFEGDLKVPRMEEKEALVPIQKATDSFHTELHPRVAFWIIKLPRRRSHQDALEGGHWLSEKRHRLQAIRDGLRKGTHKDVLEEGTESSSHSRLSPRKTHLLYILRPSRQL
B12: IL2-RA (protein, UniProt P01589 22-272, looked up)
Interleukin-2 receptor …: ELCDDDPPEIPHATFKAMAYKEGTMLNCECKRGFRRIKSGSLYMLCTGNSSHSSWDNQCQCTSSATRNTTKQVTPQPEEQKERKTTEMQSPMQPVDQASLPGHCREPPPWENEATERIYHFVVGQMVYYQCVQGYRALHRGPAESVCKMTHGKTRWTQPQLICTGEMETSQFPGEEKPQASPEGRPESETSCLVTTTDFQIQTEMAATMETSIFTTEYQVAVAGCVFLLISVLLLSGLTWQRRQRKSRRTI
B13: CXCL16 (protein, UniProt Q9H2A7 30-254, looked up)
C-X-C motif chemokine 16: NEGSVTGSCYCGKRISSDSPPSVQFMNRLRKHLRAYHRCLYYTRFQLLSWSVCGGNKDPWVQELMSCLDLKECGHAYSGIVAHQKHLLPTSPPISQASEGASSDIHTPAQMLLSTLQSTQRPTLPVGSLSSDKELTRPNETTIHTAGHSLAAGPEAGENQKQPEKNAGPTARTSATVPVLCLLAIIFILTAALSYVLCKRRRGQSPQSSPDLPVHYIPVAPDSNT
B14: TMPRSS5 (protein, UniProt Q9H3S3 1-457, looked up)
Transmembrane protease serine …: MSLMLDDQPPMEAQYAEEGPGPGIFRAEPGDQQHPISQAVCWRSMRRGCAVLGALGLLAGAGVGSWLLVLYLCPAASQPISGTLQDEEITLSCSEASAEEALLPALPKTVSFRINSEDFLLEAQVRDQPRWLLVCHEGWSPALGLQICWSLGHLRLTHHKGVNLTDIKLNSSQEFAQLSPRLGGFLEEAWQPRNNCTSGQVVSLRCSECGARPLASRIVGGQSVAPGRWPWQASVALGFRHTCGGSVLAPRWVVTAAHCMHSFRLARLSSWRVHAGLVSHSAVRPHQGALVERIIPHPLYSAQNHDYDVALLRLQTALNFSDTVGAVCLPAKEQHFPKGSRCWVSGWGHTHPSHTYSSDMLQDTVVPLFSTQLCNSSCVYSGALTPRMLCAGYLDGRADACQGDSGGPLVCPDGDTWRLVGVVSWGRGCAEPNHPGVYAKVAEFLDWIHDTAQDSLL

Test system: plasma proteins
Test: Plasma proteins modulated between baseline and day 28 in responders (CR, VGPR, PR; n = 19), Example 6 (Table 13)
Assay type: in vivo, human
Conditions: plasma protein (OLINK NPX); responders (CR, VGPR, PR; n = 19); itacitinib 200 mg or 300 mg QD with corticosteroids; day 28 vs baseline
Procedure, shortened: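 Plasma at baseline/screening and day 28 profiled for >1000 proteins by OLINK proximity extension assay, reported as NPX (log2). Steroid-naive and steroid-refractory patients pooled. Paired and unpaired t tests, ANOVA and Pearson correlation applied; significance at P<0.05.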

Row | Molecule | Fold Change, Increased Expression from Baseline to Day 28 | Fold Change, Decreased Expression from Baseline to Day 28
1 | B1 | 1.3108 | –
2 | B2 | 1.2975 | –
3 | B3 | – | −1.3557
4 | B4 | – | −2.0131
5 | B5 | – | −1.8372
6 | B6 | – | −1.9523
7 | B7 | – | −1.9244
8 | B8 | 1.2986 | –
9 | B9 | 1.5691 | –
10 | B10 | – | −1.3805
11 | B11 | 1.1495 | –
12 | B12 | – | −2.2452
13 | B13 | 1.2028 | –
14 | B14 | 1.3307 | –
